Measured values from the supplement of paper PMC9112550, “Optimization of the antimicrobial peptide Bac7 by deep mutational scanning” (BMC Biology, 2022).

Tested on: Escherichia coli TOP10
Test: shrunken log2 fold change of peptide-encoding DNA abundance (4.5 h post-induction vs induction); higher = less antimicrobial activity (less host growth inhibition)
Settings: time post-induction: 4.5 h; library: site-saturation at positions 5, 18, 19, 20
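Further: peptides expressed intracellularly from a pBAD plasmid library in pooled LB shake-flask culture, induced with 0.3% L-arabinose, DNA abundance read by NGS, three biological replicates, DESeq2 with apeglm shrinkage.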

Row | Sequence | shrunken log2 fold change
1 | RRIRERPPRLPRPRPRPAKYPRP | -0.274
2 | RRIRERPPRLPRPRPRPAMGPRP | -0.0135
3 | RRIRERPPRLPRPRPRPAMHPRP | 0.0193
4 | RRIRERPPRLPRPRPRPAMKPRP | -0.0226
5 | RRIRERPPRLPRPRPRPAMYPRP | -0.205
6 | RRIRERPPRLPRPRPRPANAPRP | -0.0563
7 | RRIRERPPRLPRPRPRPANIPRP | -0.465
8 | RRIRERPPRLPRPRPRPANQPRP | 0.0465
9 | RRIRERPPRLPRPRPRPAPGPRP | 0.325
10 | RRIRERPPRLPRPRPRPAPTPRP | 0.199
11 | RRIRERPPRLPRPRPRPAQIPRP | -0.0282
12 | RRIRERPPRLPRPRPRPAQMPRP | 0.392
13 | RRIRERPPRLPRPRPRPAQNPRP | 0.269
14 | RRIRERPPRLPRPRPRPARIPRP | -0.246
15 | RRIRERPPRLPRPRPRPASMPRP | 0.0524
16 | RRIRERPPRLPRPRPRPAVEPRP | 0.108
17 | RRIRERPPRLPRPRPRPAVMPRP | 0.0088
18 | RRIRERPPRLPRPRPRPAWDPRP | 0.0257
19 | RRIRERPPRLPRPRPRPAYEPRP | -0.00975
20 | RRIRERPPRLPRPRPRPAYFPRP | 0.019
21 | RRIRERPPRLPRPRPRPAYLPRP | -0.296
22 | RRIRERPPRLPRPRPRPCALPRP | -0.319
23 | RRIRERPPRLPRPRPRPCCIPRP | 0.0508
24 | RRIRERPPRLPRPRPRPCCLPRP | -0.57
25 | RRIRERPPRLPRPRPRPCDCPRP | 0.00557

Row | Sequence | shrunken log2 fold change
26 | RRIRERPPRLPRPRPRPCEDPRP | 0.0101
27 | RRIRERPPRLPRPRPRPCEPPRP | 0.123
28 | RRIRERPPRLPRPRPRPCFPPRP | -0.166
29 | RRIRERPPRLPRPRPRPCGDPRP | -0.231
30 | RRIRERPPRLPRPRPRPCGHPRP | 0.0222
31 | RRIRERPPRLPRPRPRPCGPPRP | -0.131
32 | RRIRERPPRLPRPRPRPCGWPRP | 0.154
33 | RRIRERPPRLPRPRPRPCHAPRP | -0.301
34 | RRIRERPPRLPRPRPRPCIKPRP | -0.363
35 | RRIRERPPRLPRPRPRPCKTPRP | 0.0029
36 | RRIRERPPRLPRPRPRPCLLPRP | -0.0977
37 | RRIRERPPRLPRPRPRPCMFPRP | -0.531
38 | RRIRERPPRLPRPRPRPCMRPRP | -0.0898
39 | RRIRERPPRLPRPRPRPCMWPRP | -0.233
40 | RRIRERPPRLPRPRPRPCNFPRP | -0.125
41 | RRIRERPPRLPRPRPRPCNLPRP | -0.904
42 | RRIRERPPRLPRPRPRPCNNPRP | -0.768
43 | RRIRERPPRLPRPRPRPCNPPRP | -0.442
44 | RRIRERPPRLPRPRPRPCNSPRP | 0.00408
45 | RRIRERPPRLPRPRPRPCPIPRP | -0.246
46 | RRIRERPPRLPRPRPRPCRDPRP | 0.0284
47 | RRIRERPPRLPRPRPRPCRYPRP | -0.00318
48 | RRIRERPPRLPRPRPRPCSPPRP | -0.286
49 | RRIRERPPRLPRPRPRPCVHPRP | -0.0795
50 | RRIRERPPRLPRPRPRPCWEPRP | -0.0225

Row | Sequence | shrunken log2 fold change
51 | RRIRERPPRLPRPRPRPCWFPRP | -0.0254
52 | RRIRERPPRLPRPRPRPCWPPRP | 0.0214
53 | RRIRERPPRLPRPRPRPCYNPRP | -0.137
54 | RRIRERPPRLPRPRPRPCYPPRP | -0.498
55 | RRIRERPPRLPRPRPRPCYSPRP | -0.704
56 | RRIRERPPRLPRPRPRPDAFPRP | -0.038
57 | RRIRERPPRLPRPRPRPDFMPRP | 0.0144
58 | RRIRERPPRLPRPRPRPDGWPRP | 0.0267
59 | RRIRERPPRLPRPRPRPDICPRP | -0.553
60 | RRIRERPPRLPRPRPRPDKNPRP | -0.383
61 | RRIRERPPRLPRPRPRPDKSPRP | -1.19
62 | RRIRERPPRLPRPRPRPDLDPRP | -0.0232
63 | RRIRERPPRLPRPRPRPDPFPRP | -0.102
64 | RRIRERPPRLPRPRPRPDPHPRP | -0.011
65 | RRIRERPPRLPRPRPRPDPVPRP | 0.181
66 | RRIRERPPRLPRPRPRPDQWPRP | 0.189
67 | RRIRERPPRLPRPRPRPDRGPRP | 0.0208
68 | RRIRERPPRLPRPRPRPDRSPRP | -0.0225
69 | RRIRERPPRLPRPRPRPDRVPRP | 0.00251
70 | RRIRERPPRLPRPRPRPDSEPRP | -0.0854
71 | RRIRERPPRLPRPRPRPDSNPRP | -0.00994
72 | RRIRERPPRLPRPRPRPDTNPRP | -0.183
73 | RRIRERPPRLPRPRPRPDTWPRP | -0.295
74 | RRIRERPPRLPRPRPRPDVAPRP | 0.087
75 | RRIRERPPRLPRPRPRPDVEPRP | 0.084

Row | Sequence | shrunken log2 fold change
76 | RRIRERPPRLPRPRPRPDVMPRP | 0.0164
77 | RRIRERPPRLPRPRPRPDWMPRP | 0.0111
78 | RRIRERPPRLPRPRPRPDWRPRP | -0.0634
79 | RRIRERPPRLPRPRPRPEACPRP | -0.0166
80 | RRIRERPPRLPRPRPRPEASPRP | -0.0341
81 | RRIRERPPRLPRPRPRPECDPRP | 0.12
82 | RRIRERPPRLPRPRPRPECFPRP | 0.435
83 | RRIRERPPRLPRPRPRPECPPRP | 0.0592
84 | RRIRERPPRLPRPRPRPEDFPRP | 0.089
85 | RRIRERPPRLPRPRPRPEDSPRP | 0.00699
86 | RRIRERPPRLPRPRPRPEESPRP | 0.148
87 | RRIRERPPRLPRPRPRPEFDPRP | 0.039
88 | RRIRERPPRLPRPRPRPEFNPRP | -0.633
89 | RRIRERPPRLPRPRPRPEHEPRP | -0.0139
90 | RRIRERPPRLPRPRPRPEKYPRP | -0.534
91 | RRIRERPPRLPRPRPRPEMKPRP | 0.425
92 | RRIRERPPRLPRPRPRPEPSPRP | 0.0429
93 | RRIRERPPRLPRPRPRPEWTPRP | 0.0896
94 | RRIRERPPRLPRPRPRPEWVPRP | 0.241
95 | RRIRERPPRLPRPRPRPFAVPRP | -0.759
96 | RRIRERPPRLPRPRPRPFCDPRP | 0.211
97 | RRIRERPPRLPRPRPRPFCPPRP | -0.149
98 | RRIRERPPRLPRPRPRPFCQPRP | -0.528
99 | RRIRERPPRLPRPRPRPFCWPRP | 0.0996
100 | RRIRERPPRLPRPRPRPFDFPRP | -0.146

Row | Sequence | shrunken log2 fold change
101 | RRIRERPPRLPRPRPRPFFNPRP | 1.38
102 | RRIRERPPRLPRPRPRPFFQPRP | -0.173
103 | RRIRERPPRLPRPRPRPFGWPRP | 0.213
104 | RRIRERPPRLPRPRPRPFKNPRP | -0.174
105 | RRIRERPPRLPRPRPRPFKTPRP | -0.0273
106 | RRIRERPPRLPRPRPRPFLCPRP | -0.143
107 | RRIRERPPRLPRPRPRPFNHPRP | -1.01
108 | RRIRERPPRLPRPRPRPFNYPRP | -0.273
109 | RRIRERPPRLPRPRPRPFPKPRP | 0.459
110 | RRIRERPPRLPRPRPRPFQIPRP | -0.145
111 | RRIRERPPRLPRPRPRPFSNPRP | -0.441
112 | RRIRERPPRLPRPRPRPFSVPRP | -0.213
113 | RRIRERPPRLPRPRPRPFTPPRP | 0.116
114 | RRIRERPPRLPRPRPRPFWEPRP | -0.56
115 | RRIRERPPRLPRPRPRPFYTPRP | -0.629
116 | RRIRERPPRLPRPRPRPGAYPRP | -0.243
117 | RRIRERPPRLPRPRPRPGCQPRP | 0.0111
118 | RRIRERPPRLPRPRPRPGECPRP | -0.0577
119 | RRIRERPPRLPRPRPRPGEHPRP | 0.0251
120 | RRIRERPPRLPRPRPRPGFCPRP | -0.122
121 | RRIRERPPRLPRPRPRPGFEPRP | -0.1
122 | RRIRERPPRLPRPRPRPGFMPRP | -0.136
123 | RRIRERPPRLPRPRPRPGGHPRP | 0.0363
124 | RRIRERPPRLPRPRPRPGHMPRP | -0.247
125 | RRIRERPPRLPRPRPRPGIIPRP | -0.0249

Row | Sequence | shrunken log2 fold change
126 | RRIRERPPRLPRPRPRPGILPRP | -0.304
127 | RRIRERPPRLPRPRPRPGLGPRP | 0.602
128 | RRIRERPPRLPRPRPRPGMLPRP | -0.0705
129 | RRIRERPPRLPRPRPRPGMNPRP | -0.308
130 | RRIRERPPRLPRPRPRPGNSPRP | -0.115
131 | RRIRERPPRLPRPRPRPGPSPRP | -0.109
132 | RRIRERPPRLPRPRPRPGQHPRP | -0.242
133 | RRIRERPPRLPRPRPRPGSHPRP | -0.152
134 | RRIRERPPRLPRPRPRPGSVPRP | 0.00838
135 | RRIRERPPRLPRPRPRPGTYPRP | -0.478
136 | RRIRERPPRLPRPRPRPGYLPRP | -0.426
137 | RRIRERPPRLPRPRPRPGYYPRP | -0.0487
138 | RRIRERPPRLPRPRPRPHCKPRP | -1.07
139 | RRIRERPPRLPRPRPRPHCLPRP | -0.138
140 | RRIRERPPRLPRPRPRPHCPPRP | -0.0673
141 | RRIRERPPRLPRPRPRPHEPPRP | -0.0545
142 | RRIRERPPRLPRPRPRPHESPRP | 0.0153
143 | RRIRERPPRLPRPRPRPHEVPRP | -0.0812
144 | RRIRERPPRLPRPRPRPHFWPRP | 0.16
145 | RRIRERPPRLPRPRPRPHGCPRP | -0.00136
146 | RRIRERPPRLPRPRPRPHGIPRP | -0.00973
147 | RRIRERPPRLPRPRPRPHHDPRP | -0.578
148 | RRIRERPPRLPRPRPRPHKVPRP | -0.361
149 | RRIRERPPRLPRPRPRPHLGPRP | -0.0405
150 | RRIRERPPRLPRPRPRPHLIPRP | -0.207
